The values that follow are results of earlier work, collected in paper PMC4964448.

pKd: −log10 of the molar value.

The target of one series is MMP9 (Homo sapiens) (UniProt P14780).
For a further series, the target named is PSGL-1 (Homo sapiens) (UniProt Q14242).
UniProt Q14242, sequence (Q14242 42-320): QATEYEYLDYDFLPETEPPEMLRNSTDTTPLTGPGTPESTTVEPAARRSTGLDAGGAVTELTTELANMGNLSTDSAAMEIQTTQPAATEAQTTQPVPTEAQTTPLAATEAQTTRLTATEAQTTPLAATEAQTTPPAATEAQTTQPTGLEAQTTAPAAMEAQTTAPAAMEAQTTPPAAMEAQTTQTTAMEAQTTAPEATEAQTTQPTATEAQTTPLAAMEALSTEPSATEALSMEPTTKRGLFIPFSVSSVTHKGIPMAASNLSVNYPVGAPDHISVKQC

UniProt P14780, sequence (P14780 94-707): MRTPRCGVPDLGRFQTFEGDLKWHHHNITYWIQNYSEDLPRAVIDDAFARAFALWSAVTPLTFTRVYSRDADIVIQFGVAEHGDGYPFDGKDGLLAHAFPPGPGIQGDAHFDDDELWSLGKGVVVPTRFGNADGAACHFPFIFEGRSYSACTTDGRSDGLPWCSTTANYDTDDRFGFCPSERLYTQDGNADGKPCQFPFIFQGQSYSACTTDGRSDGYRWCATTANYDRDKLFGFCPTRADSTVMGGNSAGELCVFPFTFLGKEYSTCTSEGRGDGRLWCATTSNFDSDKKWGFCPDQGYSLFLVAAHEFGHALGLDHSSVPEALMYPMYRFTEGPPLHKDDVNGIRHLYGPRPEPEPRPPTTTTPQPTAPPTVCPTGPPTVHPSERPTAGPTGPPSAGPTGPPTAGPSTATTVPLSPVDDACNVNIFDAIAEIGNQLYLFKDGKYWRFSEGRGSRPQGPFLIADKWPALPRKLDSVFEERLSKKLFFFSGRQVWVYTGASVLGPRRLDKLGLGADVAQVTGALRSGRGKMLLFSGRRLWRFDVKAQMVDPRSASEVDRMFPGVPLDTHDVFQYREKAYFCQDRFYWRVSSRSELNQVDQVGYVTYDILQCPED

Consider SSL5 (from UniProt Q2G1S6), for which the pKd with MMP9 (Homo sapiens) was 8.72; with PSGL-1 (Homo sapiens), 6.09.
